Data on one substance can be found in patent US20040006018A1.

This experiment concerns the target Mouse CT-1 fusion protein (mouse cardiotrophin-1 with a 34 amino acid N-terminal extension that encodes a portion of the herpes simplex virus glycoprotein D and a factor Xa cleavage site) (mouse) (UniProt Q60753). The experiment can be described thus: 125I-mouse CT-1 binding to soluble LIF receptor with added soluble gp130, Ni-NTA agarose.

Chain of Mouse CT-1 fusion protein (mouse cardiotrophin-1 with a 34 amino acid N-terminal extension that encodes a portion of the herpes simplex virus glycoprotein D and a factor Xa cleavage site) (mouse) (Q60753 whole entry, the tested form may be a part): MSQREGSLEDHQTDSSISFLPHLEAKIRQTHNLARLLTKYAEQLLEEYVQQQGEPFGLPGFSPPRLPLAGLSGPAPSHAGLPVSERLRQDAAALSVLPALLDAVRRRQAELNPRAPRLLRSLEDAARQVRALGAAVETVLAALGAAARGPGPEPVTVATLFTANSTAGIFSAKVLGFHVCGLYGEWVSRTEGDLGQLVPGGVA

Substance “Soluble mouse gp130 (extracellular domain, amino acids 1-617, with a C-terminal tag of 6 histidine residues) (from UniProt Q00560 23-617) (receptor)” showed a concentration of soluble gp130 required to increase the binding of CT-1 to the soluble LIF receptor of 100 nM.
